This is an account of results in the DeepSol protein solubility set.

The series is described as follows: soluble on expression in E. coli; label from the status in PepcDB or PDB records.
Consider “MTIQTVIKENAYFDSVTLMTISTRANELAGVKTAMIGMGTDMNLEVIRNVGLYTPALDHVTTGDLLIVLDLDDQANSEEILQQVDELFTKKKKTASSEVTYKTLDSALHEEPDANLVVISVNGKFAAREAHKALDQQKHVMLFSDNVTVDEELALKQKAHEKELFVMGPDCGTAIINGVGLCFANEVRSGDIGIVGASGTGSQEVSVQIHKYGYGISQLIGTGGRDLSAEIGGLMMLDGLDTLMVDEQTKAILLISKPPAPEVTEKILKKLAVSTKPVVIYFIGSEQTERKIDNVTFATSSLDAVQKVIQFSQTQEAETSLYQNPTGATLTAIQQQQAPSQKFVRGLFCGGTLCDELLYALTEVSDDVYSNIHKISERQLANPDHSQAHTLIDFGDDRFTEGRPHPMIDPTSRITRILQEAKDPEVAVLALDFELGYGSHENPVGVLAEALKEAKAIAKADGRELAIIGYVLGTEEDPQDIHEQRKILEDLEVLVVDSSHQLCEATKTFVKGANEHEQK”, for which the “soluble on expression in E. coli” value is “not soluble”. Turning to “MAAYKLVLIRHGESAWNLENRFSGWYDADLSPAGHEEAKRGGQALRDAGYEFDICFTSVQKRAIRTLWTVLDAIDQMWLPVVRTWRLNERHYGGLTGLNKAETAAKHGEAQVKIWRRSYDVPPPPMEPDHPFYSNISKDRRYADLTEDQLPSCESLKDTIARALPFWNEEIVPQIKEGKRVLIAAHGNSLRGIVKHLEGLSEEAIMELNLPTGIPIVYELDKNLKPIKPMQFLGDEETVRKAMEAVAAQGKAKK”, the “soluble on expression in E. coli” value was “soluble”.

In the case of “MSNYTVKIKNSAKSDLKKIKHSYLKKSFLEIVETLKNDPYKITQSFEKLEPKYLERYSRRINHQHRVVYTVDDRNKEVLILSAWSHYD”, the “soluble on expression in E. coli” value is “not soluble”.

Turning to “MTLEISNDYGKIDISNEVIASVVGGKAVECYGIVGMASRQQVRDGIAEILGHENYAKGIKVTENNGVVDIDMYIIVSYGVKISEVANNVQSTVKYTLEKSLNVSVNSINIYVQGVRVNNTGKKALEHHHHHH”, the “soluble on expression in E. coli” value is on record as “not soluble”. To “MSTVGLFHFPTPLTRICPAPWGLRLWEKLTLLSPGIAVTPVQMAGKKDYPALLSLDENELEEQFVKGHGPGGQATNKTSNCVVLKHIPSGIVVKCHQTRSVDQNRKLARKILQEKVDVFYNGENSPVHKEKREAAKKKQERKKRAKETLEKKKLLKELWESSKKVH” belongs “soluble”.

Consider “MSALFEPYTLKDVTLRNRIAIPPMSQYMAEDGMINDWHHVHLAGLARGGAGLLVVEATAVAPEGRITPGCAGIWSDAHAQAFVPVVQAIKAAGSVPGIQIAHAGRKASANRPWEGDDHIAADDTRGWETIAPSAIAFGAHLPKVPREMTLDDIARVKQDFVDAARRARDAGFEWIELHFAHGYLGQSFFSEHSNKRTDAYGGSFDNRSRFLLETLAAVREVWPENLPLTARFGVLEYDGRDEQTLEESIELARRFKAGGLDLLSVSVGFTIPDTNIPWGPAFMGPIAERVRREAKLPVTSAWGFGTPQLAEAALQANQLDLVSVGRAHLADPHWAYFAAKELGVEKASWTLPAPYAHWLERYR”, for which the “soluble on expression in E. coli” value is on record as “soluble”.

Turning to “FMDELVSLTYRSRVRLADPVADIVQIMRASRVRNLRLGITGILLYNGVHFVQTIEGPRSACDELFRLISADPRHQEILAFDLEPITARRFPDWSMRIVSRKELRALAPDLERLDLSGPEDVAELHRTIAASLSRGDA”, the “soluble on expression in E. coli” value is on record as “soluble”. For the sequence “MGHHHHHHSHMEFPFDVDALFPERITVLDQHLRPPARRPGTTTPARVDLQQQIMTIIDELGKASAKAQNLSAPITSASRMQSNRHVVYILKDSSARPAGKGAIIGFIKVGYKKLFVLDDREAHNEVEPLCILDFYIHESVQRHGHGRELFQYMLQKERVEPHQLAIDRPSQKLLKFLNKHYNLETTVPQVNNFVIFEGFFAHQHRPPAPSLRATRHSRAAAVDPTPAAPARKLPPKRAEGDIKPYSSSDREFLKVAVEPPWPLNRAPRRATPPAHPPPRSSSLGNSPERGPLRPFVPEQELLRSLRLCPPHPTARLLLAADPGGSPAQRRRTR”, the “soluble on expression in E. coli” value is given as “not soluble”. On to “MPINFHDANNKYTYAQRNAHISWGEMIKGITNIQNKQIIDIGCGGGIYTKELALMGAKSVVGLDFSKEILQAAKENCSGFSNISFIHGDAHSTPYPNDTFDIVISRAVIHHLQDIPTFLREASRILKKNGVLIVQDRTIEDCTIPGSPEHIRGYFFSIFPKLIEIESKRRPKTTTIQKELQKYFLHVFPTQTQWEVRKIHDSVEALLQDLSPRTGRSILYELTDYELSQLLQQVQTALQNVSPIIERDRWTIWSAMKL”, for which the “soluble on expression in E. coli” value was “not soluble”. For “GSHMDINNKARIHWACRRGMRELDISIMPFFEHEYDSLSDDEKRIFIRLLECDDPDLFNWLMNHGKPADAELEMMVRLIQTRNRERGPVAI”, the “soluble on expression in E. coli” value is “soluble”.
